Substrate: C[C@@H]1O[C@@H](Oc2ccc([N+](=O)[O-])cc2)[C@H](O)[C@H](O)[C@H]1O
Test: purified protein
Conditions: pH 5.0, 37 °C (b12; Experimental b31 prints Tris 200 mM, pH 6.0)

B1: DtRha (Dictyoglomus thermophilum H-6-12) (protein)
chain: MKSSNIYSPFDLKCEFTTNPLGVDKKNPIFSWKLRHLEKNEKQTAYQVIVSSSLETINDNIGDVWDTGKVLSSEQVIKYEGKELEPCKVYFWKVRWWDSKDQESPFSVVNTFETGLMNEENWKAKWITKKEHKYEVYSPDGAPFGLNYTIAYAPMFRKSFSISKKIKRARVYIAGLGLYELYINGERIGDRVLDPGQTDYKKRVLYTVYDVSKNIRDGKNAIGVILGNGRYVKEYGYDFPKLIIQVLVEYEDDSIEWIVSDESWKTTYGPITLNSLYHGEIYDGRKEIKGWNLPDFDDSTWENAILAEPPGGKLYSEIYPPIRITKTIKPIKMWSPEPGTYVYDFGQNYTGWIKIKVRTNESGKEIRIRHAELTYEDGTLNYSTNRTALATDVYITKGEGYEEYEPRFTYHGFRYVEILGYPGVPTLEDIEGKVVHTAVESNGEFICSNELINKIHHNIIWGQLSNLMSIPTDCPQRDERMGWMGDAQLSAEEAIFNFDMIGFYRKYLNDIRDAQKENGSLSDVIPPYWSIYPGDPAWSTAYITIAWYLYQYYGDKYVLEEHYEGFKKYVEFLKKLAPDYIVSFYKYGDWCQPGTVRPKDNSGELTSTFYFYHDVITLSKIAKLLGKEADYKYYSELADKIKSAFNKKFLKEKAYASIPTELSEENVKALLEKYPEDIKDFLRQQFTILSSLGMFTSQTLNTLPLYLNLVPEDKVQDVLKTLLEDIIIRHDYHLDTGIVATRYIFDVLTSYGYDEVAYKIVNQKTYPSFGYMIEEGATTLWERWEKLTSTGMNSHNHIMFGSVDAWFYRVIAGVRVGEPGWNKIIFEPHPVGDLKYAKARLNTIKGEVEINWQKTENIFSMRISVPVNSEGEVHVPKLFERFVVKEGDNIIYEKKGDLEENEKYIVIRVGSGSYNFYMEKI
With B1 the Km was 54.00 ± 0.03 µM and the kcat was 0.17 ± 0.01 s⁻¹.

From article PMC6649072
